The chains are these.
B1: Tip1 PDZ domain (domain or fragment)
chain: RVEIHKLRQGENLILGFSIGGGIDQDPSQNPFSEDKTDKGIYVTRVSEGGPAEIAGLQIGDKIMQVNGWDMTMVTHDQARKRLTKRSEEVVRLLVTRQ
B2: Shank3 PDZ domain (domain or fragment)
chain: VAILQKRDHEGFGFVLRGAKAETPIEEFTPTPAFPALQYLESVDVEGVAWRAGLRTGDFLIEVNGVNVVKVGHKQVVGLIRQGGNRLVMKVVSVT
B3: PDZ11 PDZ domain (domain or fragment)
chain: IVTLKKPPGAQLGFNIRGGKASQLGIFISKVIPDSDAHRAGLQEGDQVLAVNDVDFQDIEHSKAVEILKTAREISMRVRFFPY
B4: Tiam2 PDZ domain (domain or fragment)
chain: DVQLTKTGDMTDFGFAVTVQVDEHQHLNRIFISDVLPDSLAYGGGLRKGNEITSLNGEPVSDLDIQQMEALFSEKSVGLTLVARPVT
B5: Synip PDZ domain (domain or fragment)
chain: AFRVITVTKETGLGLKILGGINRNEGPLVYIHEVIPGGDCYKDGRLKPGDQLVSINKESMIGVSFEEAKSIITRAKLRSESPWEIAF

The values below come from article PMC3728706.

The target in this test is fluorescently labeled peptide derived from the C-terminus of β-catenin. Nature of the test: fluorescence polarisation. Background: Fluorescence polarisation rises when a labelled molecule tumbles more slowly, as on binding a larger partner.
The molecule “Erbin PDZ domain (from UniProt Q80TH2 1311-1400) (domain or fragment)” returned a Kd of 6 µM.

Turning to Grip1 PDZ domain (domain or fragment), the Kd was 369 µM.

As for “LIN7 PDZ domain (from UniProt O88951 93-175) (domain or fragment)”, the Kd came out at 25 µM. This Kd is about 15-fold lower than that of the molecule before.

“Magi-1 PDZ domain 6 (domain or fragment)” came in with a Kd of 1 µM.

Turning to Magi-2 PDZ domain (domain or fragment), the Kd turned out to be 0.6 µM.

Turning to Magi-3 PDZ domain (domain or fragment), the Kd was found to be 1 µM. This Kd is about 1.7-fold higher than that of the molecule before.

NHERF-1 PDZ domain (domain or fragment): the Kd was 20 µM.

In turn, PDZk3 PDZ domain (domain or fragment) returned a Kd of 207 µM.

In turn, PDZk7 PDZ domain (domain or fragment) displayed a Kd of 103 µM.

PSD95 PDZ domain (domain or fragment) gave a Kd of 31 µM.

For the molecule PTP-BL PDZ domain (domain or fragment), the Kd was determined as 79 µM.

Molecule Pard3 PDZ domain (domain or fragment) had a Kd of 100 µM. This Kd and that of the molecule before are within 1.5-fold of each other.

SAP97 PDZ domain (domain or fragment) yielded an equilibrium dissociation constant (Kd) of 342 µM.

Take Scrib PDZ domain (domain or fragment): the Kd turned out to be 13 µM.

The molecule B1 came in with a Kd of 0.3 µM. Against the preceding molecule, the Kd is about 43-fold lower.

As to B2, the Kd was 9 µM.

B3 registered a Kd of 333 µM. Compared with the last molecule, the Kd is about 37-fold higher.

Turning to B4, the dissociation constant Kd was 1 µM.

Consider B5, for which the Kd worked out at 276 µM.

The term Kd denotes the concentration at which binding is half-saturated.
